The domain aggregation screens of Martell et al. (2025)

Assay: soluble fraction after stress (log2 fold change); higher = more stays soluble; pooled small domains, quantitative proteomics
Conditions: stress: pH 4
Method in brief: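 Custom libraries of small protein domains were pooled and measured with high-throughput quantitative proteomics after pH 4 stress. The read-out is the fold change in the amount of each domain that stays soluble after the acid stress, taken as a measure of aggregation propensity. Fold changes are on a log2 scale, and higher values mean more of the domain stayed soluble.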

Row | Sequence | soluble fraction (log2)
1 | HMDKIYVYTTRGQVIELPRGSTAIDFAYKIQTDIGNMIIAAIVNDKLVDANYVLHNKDRVKIVTS | -0.725
2 | HMDKLNKELVSRMMDDAAWKELSKDFPWTEQLLEKYMNYVDWKEISRNYNVVWTKSLLEKFKHRLDWHE | -1.1
3 | HMDKMIFFKNKENNDDNQLVKIGALLIHAAKIDEDFSQEEENIIKQTLINFGAGNKNINEIIEKAKKME | 0.33
4 | HMDKMVAVPNVRGIEASEAEATLIAQGLFVEVEKSDSEDANVAYGEVYAQTPKAGNRVEEGTTITIKVRTE | 0.229
5 | HMDKNNLHSVLQDVPGIGPKRMKELMRAFGSVEGMKKAGLEELAAVKGMNHKAAEALIQFFR | 0.297
6 | HMDKQGGWLTMAEAAEKLGVTHHVIRRLIKEKILPAEQVMRHAPHQIRIVDLESDAVAEALRHR | 0.155
7 | HMDKVVGSAGDVTSRITANSGEVKIDGQIWQARSYDETIAIEAGEKIEVFDLDGITLIVYPI | -1.19
8 | HMDLAENWKDDADITLAEYNAIRSRYKPGKLHRDTEFMIARDMLIRPETVLAIAHSRFSNVHTHPV | -0.771
9 | HMDLDEELDFLSDADESATKLDLARAYIDMGDKDGARDILAEVLEEGRSEQKREAQALLDSI | -1.76
10 | HMDLDPVEKLHLLSQLYVGQLKGSFVVKEKNQKTTIIGEVRELSHQTLSIRTNEGYRLIEVADILEIRLWE | -0.362
11 | HMDLDYSGIMNVLNQKYHITFYNNKKIQNLMPKLMIIMGYNSIINEIGHSKSLKALINSFEEKLKSYILT | -0.403
12 | HMDLEGLSNKELVTLRGQIQDDLNKWATEVGIIDPKNRPDDYNRALQSLEDAKRQRSAIDAKL | -0.38
13 | HMDLEIENYDLREILNLFKLDYNFDNVDLKRAQKIALKTHPDKSNLPKEYFMFFMKAFQIVQQIYYYRY | -1.09
14 | HMDLFREERRQAILDWLATAGRVSVAELSASFGVSEVTVRADLQALADRRLVVRTHGGAMMAG | -0.955
15 | HMDLHSQVFESYERKIREVLREGPLTFEEILHAFALKRHETVAQVITYLMDEGKMSDSGDGKLIYSG | -0.295
16 | HMDLIISDIRMPEMRGDDFLEWIKANELFKHIPVIMLSSEDSTTERIRLLEIGAEDYIVKPFNPMELKIR | -1.01
17 | HMDLLIFSPSLGQHVRDLKRVIDRLHQHGIPVRWQKAKLLREEIEYIGWTWKSGGLIDPTNV | 0.337
18 | HMDLMSTNEKLLYTMRYLISKSLDGAITEEEIRRLDRLIIENSQARAYYVEYLQIHTHLRKLMQQNPELK | -1.15
19 | HMDLRIIKTKKAIKTAFLNLLKENKYHNITISAISETALINRKTFYAHYETKDELYADVIEDALRVLSP | -1.04
20 | HMDLRIKEIMSERNVTSAWLAEKVGISKVAVSNIVTGKSSPSLDNLLKIADALNVSITTLIG | 0.305
21 | HMDLRYKVQYNFIDQGMMTKDELLKFSLNQDDVSKIAVFDNDSKQWKEIYAITEISEKLGIS | -1.57
22 | HMDLTIEQTTVLGKRLFSNALNSLGKKQRNIKKDAIESLLKRMNLKDMDQLYESIGIGDKSPLLMAQILL | 0.0239
23 | HMDLVIALNSRIRVIREPFFGKLGTVIDLPHKLHKMESGTMTRVAKIKFDDRTEEIIPRTNLEVILS | -0.35
24 | HMDLYEILGVRRGAGGGEIRRAYRRLARRYHPDVNPGDREAQARYALITRAFETLNDPERRRAYDAGVP | 0.0754
25 | HMDMAENEEYKVIMGQAQQLAEQFFPADDNTRRIMLGQLKLENYSLYLLTKQILDEATKGQAAAAN | -0.651
26 | HMDNFDVVLTSPGDQKVQVIKAVRSITGLGLKEAKDLVDGAPNTVKEGVKKLDAEEMLKQLTEAGATGEL | -0.366

Row | Sequence | soluble fraction (log2)
27 | HMDNFQFIGYSQQQGQIAVAWIKSLDNGRLVRVEVSDSLEGWRVSDISAQGVNLTKGQQWLMLKRL | -1.37
28 | HMDNIGKTLGQNQTRQYKVAYAEAAKLPAIIMGLVPLPKPPVVDERLRSLYVTATPEQHRQIETLMNRI | -0.64
29 | HMDNITIYSSNGKIYVNAIGGEKIELFNITGQKVAEKVAVSGINVLDAVYDITLVKVGSKVVKVV | -1.41
30 | HMDNLATRILKELNNNDGFLPLSDKSQPEAIYQAFGISKKSYKTAIGTLYKKRLITISENGIQLTD | -0.2
31 | HMDNLSQMQERILEFIIRSKDQSGYTPSLREIGDEVGLKAVSSVKYQLEQLKDAHYISFDANTARAIRVLI | -0.438
32 | HMDNMFVEERQALIYEELQSNGRVRVKDLSKKFNVSEDLIRKDLNVLEKEGKLRKIYGGAVLAK | 0.071
33 | HMDNNNQAAFMGALNSLKEYAKVNGNIVTKQDVESYFKDLGLDDSKYQMITGYLLANDITVKG | -0.0847
34 | HMDNQYGVYSDEKNNVEIHWKRIDHPSVAKDHLDIEAYQNGKRVDINNQQADHYRYLINQEMNE | 0.226
35 | HMDPAFAQHHDRALSILHSRGYEVHDSDTDLHWARPVLEFEAYKGSLEYKIVMSYPDLNIIEERVD | -0.685
36 | HMDPASYEARLSTLREQGAQQLDPVRFQYLATLAQRLPTQTPGVALILANKLRAGLSDYEQRLSEAGS | -0.0623
37 | HMDPDAIVSKGQLGALNNAIGRFIAQGGSQTVVDKGIAKRNPNAKKPADLTNSQAESLEAAILKILNG | 0.121
38 | HMDPLGALSDRERQVLALIGQGHGLQAIADQLGVSYKTAANTSSALKKKLGVDGINGLMKFALDSG | 0.023
39 | HMDPLGGFTKGDVDMDGRVAVNDAVMVLKNAIKLMELDTQQLMLADADNDGKITVNDAVMILKKAIKLID | -0.478
40 | HMDPTLFRLNILEGLGLEKKNLTSEEQEQLRFLYEHFSMKEILMTIDYIKKLNLEKSIVNLYRLMQHP | -0.581
41 | HMDPTVEENKLNPRDLLIIQRVKEGRTNKEIAEELNVAEITVKKQLSSLYQRYKVHNRNQLLLALD | 0.245
42 | HMDPVQLEVIKKLNLLNAQKPKDIYALRDVLSEMFPQSDIRLLLKELLDKGYIYWNGHEVIYSHEMF | -0.431
43 | HMDPYEYQLELEKLINNATELNKKYNYDPLKDKILAADAVKNSLETYVLQNYIVALENEIKQTLNQYQIL | -0.754
44 | HMDQNDYMLTRIRNGQMRNKVSVSMPASKIKSAIAAVLKDEGYIENFALNDSSGKPSLIVNLKYYAGQPV | -0.0771
45 | HMDQPVIDVREFGARGDGKQDDAPAIQAAVRLAEQLGGGRVVVPATREFYLLGSTIRIRGHHVTLTGPGAR | 0.0605
46 | HMDRAIAAHLEARVRDALKQLSPEQTRVIELFFFDNKTHAEIENDLKIPLGTVKSRLRLALNKLRASL | -0.234
47 | HMDRASGEEEALKEAEDAISRVWEFDGPVELNPQNSYLRRLQHELASRYNVKSVSIGQEPNRRVVYYK | -0.428
48 | HMDRDPAEAGYDDGYLSGNTDGMNNDERATYDESSQYPTPDERQSYAAAYRRGYAAGFADGRKQAV | -0.138
49 | HMDREIVEAIVPLEAAGKRFDAALAEMFPEFSRSRLTEWIKAGDALLAGEIVKPKVSVRGGEAVSLSIRV | -0.256
50 | HMDRELVALVQKALSQLSEQQRRIVELHVMEGMKYLEIADLLQLSENTVRTHLKRAYKILRENH | -0.921
51 | HMDRERFIKLGREIARAAFENVGKKATDKVLNSAAKKLRLEDGDEVLARLGSAEIEARSVVQAVYPDLI | 0.336
52 | HMDRKARRKYIEQVVNDRKIETQEELLKLLTEAGFETTQATISRDIHALNIVKANDGDGHTHYVQLH | 0.0264

Row | Sequence | soluble fraction (log2)
53 | HMDRKEEIIIVTLKLASQIGLSNVSMEQIAKQVGIKKPSLYNHFKSKDEIIDAMYEYLREKSKN | -1.16
54 | HMDRMIPPYGLEVTYDKTTHIIFPSAVRYVDLGSPNLIAGKADGSENVIRVKATRKNFREETNMSVITE | -0.0773
55 | HMDRPEPLYIVNGKEVQTLEEAFELGRTLGSAKKGTQVRLRRLLPEEGVEKYGEKGRNGVFEFMVSA | 0.385
56 | HMDRPLRTKEHFARFAGEQVVVKTSSPIDGRSSFTGTLEGMEGDDVIVEVDGSRIAIGYSLIKRAHVVG | 0.406
57 | HMDRRFFVAEENYKRLDVFLSERMEEFTRSRIKKLIDEGHVELNGKSAKAGAEIRPGDEVAAEIPEVKE | 0.239
58 | HMDRRIDIANAVKTALGSLPERQKTAIVLVHYEGFSGAETAKLLGISVEAVESLLARARRNLRQTLGP | -0.586
59 | HMDRTIGEIGLVTETIDSTLESGRVMVDGLSWKARTSDNTVLEAGTRVQVKEIHGVTLTVEKA | 0.147
60 | HMDRTLTYTVSIEESDLRADQFLSRRGFSSHLLTRLRKNMEHLLINGTPSRTNTHLHEGDILTVHIVEE | -0.249
61 | HMDRWTPLIVAVLIEGSHRFGELRSAIGGITPKVLTETLRSMERDGLVTRDQVPGVPPRVDYALTPLG | -0.434
62 | HMDRYVDEEKRFYWRSGEAYLNFSKYKDRSLAEVATVDPGFLRWMMEADFSPETKQIVERALEGEFPQKK | -0.244
63 | HMDSADADLLRRIEDLLSSRRSVIREARLADMLGVPRDQVARALDLLQERGVIGLTTDSGMKRIAFRRN | 0.111
64 | HMDSAQLARWAATILAQNGRKITPSTMNLFLERVGDDMENIRMELEKLISYTMGSEVVTAEDVKVITTVQ | -0.82
65 | HMDSAVLQKHLVKLIELHAPIKARNLAKILADEFGKHVDRSAVNSALYSLKAERKVEVNSSYEWSLD | 0.252
66 | HMDSDRAARLSSLTPQQFRVLRMVSEGQLNKQIAYQLNISEATVKSHVSAILQKLGVNSRTQAVILATRLD | 0.147
67 | HMDSEQLSGLVNMGFSVYQAKTALEMFDNDIERAANYL | -0.871
68 | HMDSERTALLSSDRTSFTAREAALLIGVSQRDIYRMIEDELLDSFTVGKMIRIRRSALEWWLS | -1.46
69 | HMDSFEEGTYRKNQRGFGFVKIENQEDEIFISKENSLNALNGDRVIVEIIEDKDRTKRAEGKIKKILKHE | -0.086
70 | HMDSGLLSAREREVAGLVLSGMTYAEIGEAIFISPRTAEHHIARIRRRLGATSRTDLIAKLQAIVGID | -1.42
71 | HMDSGVPEWLASALRASPVAWKNFLALPPSHQRRYVGWISSARRDETRNRRIAEAISLLVEHKRLG | 0.0211
72 | HMDSIKDQIYQILKEDILTGELRSGEQLVEQTIAARFNTSRSPVREAIKQLTGDGLVINITNKGTFVK | -0.0915
73 | HMDSISEQIYSIIKEEILLAKRKPGEQINPRKLADEFETSVMPIRDALNQLANEGLVIRKPRVGFFVR | -0.177
74 | HMDSITEADLLRWAHALSGIARTGLGFTESRYERERYEEVLAVAADILAASSRSHDRAALVDEWLKMVGV | -1.55
75 | HMDSKKNLLGKNGLAFTTLRPAGTVLIDGQRHDVISNGDMIPKGATVRVIAIEGASITVEALPD | -0.309
76 | HMDSMATVPDLVGKTEDEAKALANDAHLGVQMAGEEASDQEKGKISRQETAAGTQVAEYTTVKYWVSTGTQ | 0.154
